Measurements published in IntAct's records for PubMed 23454120.

B1: Rho-related GTP-binding protein RhoD (Mus musculus), P97348 (parent)
chain: MNASQVAGEEAPQSGHSVKVVLVGDGGCGKTSLMMVFAKGAFPESYSPTVFERYNATLQMKGKPVHLQIWDTAGQDDYDRLRPLFYPDANVLLLCFDVTNPNSFDNVSNRWYPEVTHFCKGVPIIVVGCKIDLRKDKVLVNNLRKKRLEPVTYHRGHDMARSVGAVAYLECSARLHDNVEAVFQEAAEVALSSRRHNFWRRITQNCCLAT

Variants of: B1
Settings: with dapk3_human DAPK3, O43293
Chain of dapk3_human DAPK3, O43293 (O43293 whole entry, looked up): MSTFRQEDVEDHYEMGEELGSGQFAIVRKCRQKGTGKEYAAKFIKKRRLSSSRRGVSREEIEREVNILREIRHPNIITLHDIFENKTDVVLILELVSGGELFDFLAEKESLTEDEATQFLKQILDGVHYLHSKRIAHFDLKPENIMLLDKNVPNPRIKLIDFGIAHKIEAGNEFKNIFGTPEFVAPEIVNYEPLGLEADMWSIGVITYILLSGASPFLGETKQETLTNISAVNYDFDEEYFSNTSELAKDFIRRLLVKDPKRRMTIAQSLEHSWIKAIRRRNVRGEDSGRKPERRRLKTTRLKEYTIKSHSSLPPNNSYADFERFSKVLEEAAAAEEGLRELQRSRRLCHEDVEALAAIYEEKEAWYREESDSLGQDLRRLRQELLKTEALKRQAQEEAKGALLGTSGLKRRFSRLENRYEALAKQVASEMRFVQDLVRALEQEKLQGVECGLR

| Variant | effect of a mutation on the interaction |
| --- | --- |
| MNASQVAGEEAPQSGHSVKVVLVGDGGCGKNSLMMVFAKGAFPESYSPTVFERYNATLQMKGKPVHLQIWDTAGQDDYDRLRPLFYPDANVLLLCFDVTNPNSFDNVSNRWYPEVTHFCKGVPIIVVGCKIDLRKDKVLVNNLRKKRLEPVTYHRGHDMARSVGAVAYLECSARLHDNVEAVFQEAAEVALSSRRHNFWRRITQNCCLAT [T31N] | disrupting interaction |
